Experimental data: patent US20230242646A1 (JJP BIOLOGICS SP Z O O, published 2023)
Residue numbers refer to the chain shown, from its start.

Assays:
[1] = target: T1, membrane-bound full-length human CD89 on HEK293F cells (human, UniProt P24071 22-287); experiment: FACS HEK293F-huCD89
T1 construct: 2 or transient transfectants; also called membrane human CD89; human FcaRI
Protocol: After extensive washing in PBS/BSA/NaN₃, cells were subsequently incubated with 1:200 diluted PE-conjugated goat anti-human IgG Fcy-specific antibodies (Jackson ImmunoResearch) for 30 minutes at 4° C. After extensive washing in PBS/BSA/NaN₃, cells were fixed in 2% formaldehyde in PBS/BSA/NaN₃ for 30 minutes at 4° C.

[2] = target: T2, recombinant C-terminal polyhistidine-tagged human (extracellular) CD89 (Sino Biological) (human, UniProt P24071 22-227); experiment: ELISA, coated rhuCD89
T2 construct: extracellular domain; bought protein; also called rhuCD89; soluble monomeric rhuCD89
Protocol: (§1) After extensive washing with PBS/0.05% Tween 20, plates were blocked with PBS/0.05% Tween 20/1% BSA (Roche) for 1 hour at RT. Subsequently, plates were incubated with 50 µL titrated (in block buffer) purified mouse anti-human CD89 antibody/well for 1 hour at RT. […] After extensive washing in PBS/0.05% Tween 20, binding of antibodies on rhuCD89 was determined with 1:5,000 diluted horseradish peroxidase (HRP)-conjugated goat anti-mouse IgG Fcy-specific antibodies (Jackson ImmunoResearch) for 1 hour at RT, followed by a ready-to-use solution of TMB substrate (Invitrogen) for colorimetric detection.
After extensive washing with PBS/0.05% Tween 20, plates were blocked with PBS/0.05% Tween 20/1% BSA (Roche) for 1 hour at RT. […] After extensive washing in PBS/0.05% Tween 20, binding of antibodies on rhuCD89 was determined with 1:5,000 diluted horseradish peroxidase (HRP)-conjugated goat anti-human IgG Fcy-specific antibodies (Jackson ImmunoResearch) for 1 hour at RT, followed by a ready-to-use solution of TMB substrate (Invitrogen) for colorimetric detection.

[3] = target: T1, membrane-bound full-length human CD89 …; experiment: FACS on HEK293F-huCD89
Protocol: Then, 10 µL/tube (i.e., 0.1 x 10⁶ cells) of these cells were incubated with 100 µL titrated (in PBS/BSA/NaN₃) purified mouse anti-human CD89 antibody/tube for 30 minutes at 4° C. […] After extensive washing in PBS/BSA/NaN₃, cells were subsequently incubated with 1:200 diluted PE-conjugated goat anti-mouse IgG Fcy-specific antibodies (Jackson ImmunoResearch) for 30 minutes at 4° C. After extensive washing in PBS/BSA/NaN₃, cells were fixed in 2% formaldehyde in PBS/BSA/NaN₃ for 30 minutes at 4° C.

[4] = target: T2, recombinant C-terminal …; experiment: ELISA on coated rhuCD89
Protocol: as §1

[5] = target: T1, membrane-bound full-length human CD89 …; experiment: FACS HEK293F-huCD89, 10 ug/mL; competitor PE-A3
Protocol: (§2) Then, 10 µL/tube (i.e., 0.1 × 10⁶ cells) of these cells were incubated with or without 100 µL purified mouse anti-human CD89 antibody at 10 µg/mL (in PBS/BSA/NaN₃) for 30 minutes at 4° C. […] After extensive washing in PBS/BSA/NaN₃, cells were fixed in 2% formaldehyde in PBS/BSA/NaN₃ for 30 minutes at 4° C.

[6] = target: T1, membrane-bound full-length human CD89 …; experiment: FACS HEK293F-huCD89, 10 ug/mL; competitor PE-A59
Protocol: as §2

[7] = target: T1, membrane-bound full-length human CD89 …; experiment: FACS HEK293F-huCD89, 10 ug/mL; competitor PE-MIP8a
Protocol: as §2

[8] = target: T3, chimeric bovine EC1-Fcgamma2R/human EC2-CD89 on HEK293F cells (bovine/human chimera); experiment: FACS, transiently transfected HEK293F
T3 chain: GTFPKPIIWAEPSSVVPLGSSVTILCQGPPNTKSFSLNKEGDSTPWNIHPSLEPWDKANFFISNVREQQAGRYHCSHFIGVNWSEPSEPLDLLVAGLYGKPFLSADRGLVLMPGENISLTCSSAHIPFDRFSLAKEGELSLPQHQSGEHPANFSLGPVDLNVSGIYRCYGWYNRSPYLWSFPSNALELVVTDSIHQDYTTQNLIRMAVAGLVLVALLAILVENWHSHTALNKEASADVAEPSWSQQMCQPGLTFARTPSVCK
Protocol: To this end, transient transfected HEK293F cells were put at 10 × 10⁶ cells/mL in ice-chilled phosphate-buffered saline containing 0.1% BSA (Sigma)/0.05% NaN₃ (PBS/BSA/NaN₃) supplemented with 50 µg/mL human IgGs (blocking Fcy receptors; Sigma) for 10 minutes at 4° C. Then, 10 µL/tube (i.e., 0.1 × 10⁶ cells) of these cells were incubated with or without 100 µL purified mouse anti-human CD89 antibody at 10 µg/mL (in PBS/BSA/NaN₃) for 30 minutes at 4° C. […] After extensive washing in PBS/BSA/NaN₃, cells were subsequently incubated with 1:200 diluted PE-conjugated goat anti-mouse IgG Fcy-specific antibodies (Jackson ImmunoResearch) for 30 minutes at 4° C. After extensive washing in PBS/BSA/NaN₃, cells were fixed in 2% formaldehyde in PBS/BSA/NaN₃ for 30 minutes at 4° C.

[9] = target: T4, membrane full-length cynomolgus monkey CD89 on HEK293F cells (cynomolgus monkey); experiment: FACS, transiently transfected HEK293F
T4 construct: also called cynoCD89; cynomolgus EC1-CD89
T4 chain: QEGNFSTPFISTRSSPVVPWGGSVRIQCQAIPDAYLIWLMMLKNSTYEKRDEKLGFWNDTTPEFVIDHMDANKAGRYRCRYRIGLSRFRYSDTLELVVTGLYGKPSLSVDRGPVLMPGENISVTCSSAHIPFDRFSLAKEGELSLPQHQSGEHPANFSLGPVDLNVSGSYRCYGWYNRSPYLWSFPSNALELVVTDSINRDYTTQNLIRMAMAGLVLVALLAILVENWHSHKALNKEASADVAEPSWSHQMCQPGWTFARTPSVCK
Protocol: To this end, transient transfected HEK293F cells were put at 10 x 10⁶ cells/mL in ice-chilled phosphate-buffered saline containing 0.1% BSA (Sigma)/0.05% NaN₃ (PBS/BSA/NaN₃) supplemented with 50 µg/mL human IgGs (blocking FcY receptors; Sigma) for 10 minutes at 4° C. Then, 10 µL/tube (i.e., 0.1 × 10⁶ cells) of these cells were incubated with or without 100 µL purified mouse anti-human CD89 antibody at 10 µg/mL (in PBS/BSA/NaN₃) for 30 minutes at 4° C. […] After extensive washing in PBS/BSA/NaN₃, cells were subsequently incubated with 1:200 diluted PE-conjugated goat anti-mouse IgG Fcy-specific antibodies (Jackson ImmunoResearch) for 30 minutes at 4° C. After extensive washing in PBS/BSA/NaN₃, cells were fixed in 2% formaldehyde in PBS/BSA/NaN₃ for 30 minutes at 4° C.

[10] = target: T5, chimeric human/cynomolgus monkey CD89-III on HEK293F cells (human/cynomolgus chimera, UniProt P24071 22-287); experiment: FACS, transiently transfected HEK293F
T5 construct: also called dGly72 - Gly96 human EC1-CD89; III (72-96)
T5 chain: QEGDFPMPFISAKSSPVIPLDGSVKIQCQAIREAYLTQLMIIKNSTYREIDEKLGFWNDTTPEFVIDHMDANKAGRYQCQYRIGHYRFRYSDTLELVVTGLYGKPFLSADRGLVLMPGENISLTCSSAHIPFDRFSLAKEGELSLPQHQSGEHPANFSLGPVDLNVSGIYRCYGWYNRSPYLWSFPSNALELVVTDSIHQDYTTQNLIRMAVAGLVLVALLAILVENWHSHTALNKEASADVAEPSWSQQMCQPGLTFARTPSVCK
Protocol: (§3) To this end, transient transfected HEK293F cells were put at 10 × 10⁶ cells/mL in ice-chilled phosphate-buffered saline containing 0.1% BSA (Sigma)/0.05% NaN₃ (PBS/BSA/NaN₃) supplemented with 50 µg/mL human IgGs (blocking FcY receptors; Sigma) for 10 minutes at 4° C. Then, 10 µL/tube (i.e., 0.1 × 10⁶ cells) of these cells were incubated with or without 100 µL purified mouse anti-human CD89 antibody at 10 µg/mL (in PBS/BSA/NaN₃) for 30 minutes at 4° C. […] After extensive washing in PBS/BSA/NaN₃, cells were subsequently incubated with 1:200 diluted PE-conjugated goat anti-mouse IgG Fcy-specific antibodies (Jackson ImmunoResearch) for 30 minutes at 4° C. After extensive washing in PBS/BSA/NaN₃, cells were fixed in 2% formaldehyde in PBS/BSA/NaN₃ for 30 minutes at 4° C.

[11] = target: T6, chimeric human/cynomolgus monkey CD89-hotspots on HEK293F cells (human/cynomolgus chimera, UniProt P24071 22-287); experiment: FACS, transiently transfected HEK293F
T6 construct: also called dThr58, Gln59; dArg73, Arg74, Lys76
T6 chain: T5 chain with T37I, Q38W, D51G, D59E, T61D, H85L, Y86S
Protocol: as §3

[12] = target: T7, chimeric human/cynomolgus monkey CD89-I on HEK293F cells (human/cynomolgus chimera, UniProt P24071 22-287); experiment: FACS, 10 µg/mL, transiently transfected HEK293F
T7 construct: also called dGln22 - Lys46 human EC1-CD89; I (22-46)
T7 chain: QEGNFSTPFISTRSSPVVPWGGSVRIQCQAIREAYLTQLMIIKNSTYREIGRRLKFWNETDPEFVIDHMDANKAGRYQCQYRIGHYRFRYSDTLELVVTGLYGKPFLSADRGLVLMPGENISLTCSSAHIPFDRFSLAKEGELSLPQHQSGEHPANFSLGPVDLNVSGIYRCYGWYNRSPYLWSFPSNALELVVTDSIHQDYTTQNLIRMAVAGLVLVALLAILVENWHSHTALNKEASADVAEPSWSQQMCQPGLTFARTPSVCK
Protocol: as §3

[13] = target: T8, chimeric human/cynomolgus monkey CD89-II on HEK293F cells (human/cynomolgus chimera, UniProt P24071 22-287); experiment: FACS, 10 µg/mL, transiently transfected HEK293F
T8 construct: also called dIle47 - Ile71 human EC1-CD89; II (47-71)
T8 chain: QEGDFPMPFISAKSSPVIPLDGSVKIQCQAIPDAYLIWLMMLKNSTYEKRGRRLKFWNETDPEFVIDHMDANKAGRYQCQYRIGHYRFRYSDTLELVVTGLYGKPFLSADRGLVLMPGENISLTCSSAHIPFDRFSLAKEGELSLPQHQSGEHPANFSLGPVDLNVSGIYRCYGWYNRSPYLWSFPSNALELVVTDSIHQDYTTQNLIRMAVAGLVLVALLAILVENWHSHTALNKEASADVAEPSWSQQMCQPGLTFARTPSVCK
Protocol: as §3

[14] = target: T9, chimeric human/cynomolgus monkey CD89-IV on HEK293F cells (human/cynomolgus chimera, UniProt P24071 22-287); experiment: FACS, 10 µg/mL, transiently transfected HEK293F
T9 construct: also called dArg97 - Gly121 human EC1-CD89
T9 chain: T5 chain with D51G, E52R, K53R, G55K, D59E, T61D, Q78R, Q80R, H85L, Y86S
Protocol: as §3

[15] = target: T1, membrane-bound full-length human CD89 …; experiment: FACS, antibody before serum IgA on HEK293F-huCD89; IgA detected
Protocol: Then, 10 µL/tube (i.e., 0.1 x 10⁶ cells) of these cells were incubated with 50 µL titrated (in PBS/BSA/NaN₃) purified mouse anti-human CD89 antibody/tube for 30 minutes at 4° C. […] After extensive washing in PBS/BSA/NaN₃, 1:200 diluted PE-conjugated streptavidin (Jackson ImmunoResearch) was added, and incubated for 30 minutes at 4° C. After extensive washing in PBS/BSA/NaN₃, cells were fixed in 2% formaldehyde in PBS/BSA/NaN₃ for 30 minutes at 4° C.

[16] = target: T2, recombinant C-terminal …; experiment: ELISA, antibody before serum IgA on coated rhuCD89; IgA detected
Protocol: After extensive washing with PBS/0.05% Tween 20, plates were blocked with PBS/0.05% Tween 20/1% BSA (Roche) for 1 hour at RT. Subsequently, plates were incubated with 25 µL titrated (in block buffer) purified mouse anti-human CD89 antibody/well for 30 minutes at RT. […] After extensive washing in PBS/0.05% Tween 20, 1:10,000 diluted HRP-conjugated streptavidin (Jackson ImmunoResearch) was added, and incubated for 1 hour at RT, followed by a ready-to-use solution of TMB substrate (Invitrogen) for colorimetric detection.

[17] = target: T1, membrane-bound full-length human CD89 …; experiment: FACS, antibody before secretory IgA on HEK293F-huCD89; IgA detected
Protocol: Then, 10 µL/tube (i.e., 0.1 x 10⁶ cells) of these cells were incubated with or without 50 µL titrated (in PBS/BSA/NaN₃) purified mouse anti-human CD89 antibody/tube for 30 minutes at 4° C. […] After extensive washing in PBS/BSA/NaN₃, 1:200 diluted PE-conjugated streptavidin (Jackson ImmunoResearch) was added, and incubated for 30 minutes at 4° C. After extensive washing in PBS/BSA/NaN₃, cells were fixed in 4% formaldehyde in PBS/BSA/NaN₃ for 30 minutes at 4° C.

B1: CD89/IgA blocking mouse anti-human CD89-specific antibody 8F3 (antibody, V domains shown)
VH: EVQLVESGGGLVKPGGSLKLSCAASGFTFSNYGMSWVRQTPDKRLEWVATMHSGGTYTYYPDNVKGRFTISRDNAKNNLYLQMSSLRSEDTAMYYCARETGLYDGLFDFWGQGTTLTVSS
VL: DVQITQSPSYLAASPGETITINCRASKTISKYLAWYQEKPGKTNMLLIYSGSTLQSGVPSRFSGSGSGTDFTLTISSLEPEDLAMYYCQQHDEYPWTFGGGTKLEIK
notes: also called mouse 8F3
- EC50 [1]: 0.714 µg/mL
- EC50 [2]: 0.052 µg/mL
- EC50 (read off the curve) [3]: ~0.4 µg/mL
- EC50 (read off the curve) [4]: ~0.03 µg/mL
- % blocking of PE-A3 binding [5]: < 25%
- % blocking of PE-A59 binding [6]: < 25%
- % blocking of PE-MIP8a binding [7]: < 25%
- binding result [8]: no binding (tested: 10 µg/mL)
- binding result [9]: no binding (tested: 10 µg/mL)
- binding result [10]: no binding (tested: 10 µg/mL)
- binding result [11]: no binding (tested: 10 µg/mL)
- binding result [12]: binds
- binding result [13]: binds
- binding result [14]: binds
- IC50 (read off the curve) [15]: ~0.8 µg/mL
- IC50 (read off the curve) [16]: ~0.09 µg/mL
- IC50 (read off the curve) [17]: ~0.8 µg/mL
